# Source: patent publication US20230220589A1
# B1: engineered M44-A binder (SEQ ID NO: 42) (designed binder, not shown: small tags and cut ends; large carriers)
# chain: QVSVQPNFQQDKFLGRWFVAGLASNSSWDREKVAALSGAKMVVAPATDGGLNVTRTMLRKNQCETYTGLLQPAGSLGSYSWRSPHPGSTGSESVVETDYDQYALVYGQGSKGPGEDLRAAALWSRTQTPRAELKEKFTAFSKAQGFTEDTIVFLPQTDKCMTEQ
# Legend:
# [1] = target: M44-modified V NTAA target peptides; assay: encoding assay; P2 F
# [2] = target: M44-modified P NTAA target peptides; assay: encoding assay; P2 F
# [3] = target: M44-modified G NTAA target peptides (M44-G-P2-peptide); assay: encoding assay; P2 F
# [4] = target: M44-modified H NTAA target peptides; assay: encoding assay; P2 F
# [5] = target: M44-modified L NTAA target peptides (M44-L-P2-peptide); assay: encoding assay; P2 F
# [6] = target: M44-modified F NTAA target peptides (M44-F-P2-peptide); assay: encoding assay; P2 F
# [7] = target: M44-modified T NTAA target peptides; assay: encoding assay; P2 F
# [8] = target: M44-modified E NTAA target peptides; assay: encoding assay; P2 F
# [9] = target: M44-modified D NTAA target peptides; assay: encoding assay; P2 F
# [10] = target: M44-modified Q NTAA target peptides; assay: encoding assay; P2 F
# [11] = target: M44-modified A NTAA target peptides (M44-A-P2-peptide); assay: encoding assay; P2 F
# [12] = target: M44-modified Y NTAA target peptides (M44-Y-P2-peptide); assay: encoding assay; P2 A
# [13] = target: M44-modified G NTAA target peptides (M44-G-P2-peptide); assay: encoding assay; P2 A
# [14] = target: M44-modified F NTAA target peptides (M44-F-P2-peptide); assay: encoding assay; P2 A
# [15] = target: M44-modified M NTAA target peptides; assay: encoding assay; P2 G
# [16] = target: M44-modified I NTAA target peptides (M44-I-P2-peptide); assay: encoding assay; P2 G
# [17] = target: M44-modified Y NTAA target peptides (M44-Y-P2-peptide); assay: encoding assay; P2 G
# [18] = target: M44-modified V NTAA target peptides; assay: encoding assay; P2 G
# [19] = target: M44-modified L NTAA target peptides (M44-L-P2-peptide); assay: encoding assay; P2 G
# [20] = target: M44-modified W NTAA target peptides; assay: encoding assay; P2 G
# [21] = target: M44-modified F NTAA target peptides (M44-F-P2-peptide); assay: encoding assay; P2 G
# [22] = target: M44-modified T NTAA target peptides; assay: encoding assay; P2 G
# [23] = target: M44-modified E NTAA target peptides; assay: encoding assay; P2 G
# [24] = target: M44-modified Q NTAA target peptides; assay: encoding assay; P2 G
# [25] = target: M44-modified M NTAA target peptides; assay: encoding assay; P2 P
# [26] = target: M44-modified N NTAA target peptides; assay: encoding assay; P2 P
# [27] = target: M44-modified I NTAA target peptides (M44-I-P2-peptide); assay: encoding assay; P2 P
# [28] = target: M44-modified S NTAA target peptides; assay: encoding assay; P2 P
# [29] = target: M44-modified Y NTAA target peptides (M44-Y-P2-peptide); assay: encoding assay; P2 P
# [30] = target: M44-modified H NTAA target peptides; assay: encoding assay; P2 P
# [31] = target: M44-modified L NTAA target peptides (M44-L-P2-peptide); assay: encoding assay; P2 P
# [32] = target: M44-modified F NTAA target peptides (M44-F-P2-peptide); assay: encoding assay; P2 P
# [33] = target: M44-modified E NTAA target peptides; assay: encoding assay; P2 P
# [34] = target: M44-modified D NTAA target peptides; assay: encoding assay; P2 P
# [35] = target: M44-modified Q NTAA target peptides; assay: encoding assay; P2 P
# [36] = target: M44-modified A NTAA target peptides (M44-A-P2-peptide); assay: encoding assay; P2 P
# [37] = target: M44-modified M NTAA target peptides; assay: encoding assay; P2 H
# [38] = target: M44-modified N NTAA target peptides; assay: encoding assay; P2 H
# [39] = target: M44-modified I NTAA target peptides (M44-I-P2-peptide); assay: encoding assay; P2 H
# [40] = target: M44-modified Y NTAA target peptides (M44-Y-P2-peptide); assay: encoding assay; P2 H
# [41] = target: M44-modified V NTAA target peptides; assay: encoding assay; P2 H
# [42] = target: M44-modified P NTAA target peptides; assay: encoding assay; P2 H
# [43] = target: M44-modified H NTAA target peptides; assay: encoding assay; P2 H
# [44] = target: M44-modified L NTAA target peptides (M44-L-P2-peptide); assay: encoding assay; P2 H
# [45] = target: M44-modified W NTAA target peptides; assay: encoding assay; P2 H
# [46] = target: M44-modified F NTAA target peptides (M44-F-P2-peptide); assay: encoding assay; P2 H
# [47] = target: M44-modified T NTAA target peptides; assay: encoding assay; P2 H
# [48] = target: M44-modified D NTAA target peptides; assay: encoding assay; P2 H
# [49] = target: M44-modified Q NTAA target peptides; assay: encoding assay; P2 H
# [50] = target: M44-modified A NTAA target peptides (M44-A-P2-peptide); assay: encoding assay; P2 H
# 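Also: fraction of recording tags encoded.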
binder,measurement,setting,value
B1,encoding yield,[1],0.13
same,encoding yield,[2],0.02
same,encoding yield,[3],0.1
same,encoding yield,[4],0.04
same,encoding yield,[5],0.05
same,encoding yield,[6],0.03
same,encoding yield,[7],0.25
same,encoding yield,[8],0.04
same,encoding yield,[9],0.03
same,encoding yield,[10],0.03
same,encoding yield,[11],0.31
same,encoding yield,[12],0.03
same,encoding yield,[13],0.04
same,encoding yield,[14],0.06
same,encoding yield,[15],0.01
same,encoding yield,[16],0.08
same,encoding yield,[17],0.02
same,encoding yield,[18],0.05
same,encoding yield,[19],0.03
same,encoding yield,[20],0.01
same,encoding yield,[21],0.04
same,encoding yield,[22],0.11
same,encoding yield,[23],0.03
same,encoding yield,[24],0.02
same,encoding yield,[25],0.02
same,encoding yield,[26],0.02
same,encoding yield,[27],0.03
same,encoding yield,[28],0.05
same,encoding yield,[29],0.02
same,encoding yield,[30],0.04
same,encoding yield,[31],0.04
same,encoding yield,[32],0.04
same,encoding yield,[33],0.03
same,encoding yield,[34],0.04
same,encoding yield,[35],0.03
same,encoding yield,[36],0.03
same,encoding yield,[37],0.04
same,encoding yield,[38],0.05
same,encoding yield,[39],0.04
same,encoding yield,[40],0.07
same,encoding yield,[41],0.03
same,encoding yield,[42],0.05
same,encoding yield,[43],0.02
same,encoding yield,[44],0.03
same,encoding yield,[45],0.03
same,encoding yield,[46],0.02
same,encoding yield,[47],0.04
same,encoding yield,[48],0.04
same,encoding yield,[49],0.05
same,encoding yield,[50],0.05
